Measurements taken from publication PMC9040844, “Escherichia coli Uses a Dedicated Importer and Desulfidase To Ferment Cysteine” (mBio, 2022).

Substrate: N[C@@H](CS)C(=O)O
Assay: purified protein
Type: biochemical, Escherichia coli
Settings: 50 mM Tris pH 7.6, room temperature, anaerobic, Fe(II)/DTT-reactivated [4Fe-4S] enzyme

B1: CyuA (Escherichia coli K-12) (protein)
chain: MFDSTLNPLWQRYILAVQEEVKPALGCTEPISLALAAAVAAAELEGPVERVEAWVSPNLMKNGLGVTVPGTGMVGLPIAAALGALGGNANAGLEVLKDATAQAIADAKALLAAGKVSVKIQEPCDEILFSRAKVWNGEKWACVTIVGGHTNIVHIETHDGVVFTQQACVAEGEQESPLTVLSRTTLAEILKFVNEVPFAAIRFILDSAKLNCALSQEGLSGKWGLHIGATLEKQCERGLLAKDLSSSIVIRTSAASDARMGGATLPAMSNSGSGNQGITATMPVVVVAEHFGADDERLARALMLSHLSAIYIHNQLPRLSALCAATTAAMGAAAGMAWLVDGRYETISMAISSMIGDVSGMICDGASNSCAMKVSTSASAAWKAVLMALDDTAVTGNEGIVAHDVEQSIANLCALASHSMQQTDRQIIEIMASKAR
notes: full ORF in pET16b, N-terminal His10 tag kept, about 47 kDa; expressed in E. coli SR011 (BL21(DE3) katG katE) with isc operon
Question: How did the Km turn out when B1 was run?
Answer: The Km was 200 µM.
